The source of these data is patent publication US20260001928A1 (CORTERIA PHARMACEUTICALS, priority 2022, published 2026).

The target of experiment [1] is human corticotropin-releasing factor 2a (CRF2a receptor) (human), Q13324. Kind of experiment: cell-based or functional assay.
The next experiment concerns the target T1, CRF1R receptor (UniProt P34998 24-415, limits assumed).
T1 sequence (looked up): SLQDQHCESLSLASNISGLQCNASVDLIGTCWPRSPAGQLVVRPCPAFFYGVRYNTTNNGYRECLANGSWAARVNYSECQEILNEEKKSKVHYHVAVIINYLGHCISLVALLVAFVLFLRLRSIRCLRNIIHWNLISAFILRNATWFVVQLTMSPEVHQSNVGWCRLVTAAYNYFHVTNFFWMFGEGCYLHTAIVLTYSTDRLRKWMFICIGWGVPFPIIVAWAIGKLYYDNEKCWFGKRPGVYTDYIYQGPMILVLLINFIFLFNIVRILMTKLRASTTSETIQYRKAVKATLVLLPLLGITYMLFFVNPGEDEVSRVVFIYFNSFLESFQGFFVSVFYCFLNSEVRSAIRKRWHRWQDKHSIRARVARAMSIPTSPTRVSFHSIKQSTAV
Kind of experiment: cell-based or functional assay.

*1 amine or outer side, *2 acyl side, *3 side chain or, on linkers, in order; H or OH if unused. Where no end group is shown, it is not given here. Side-chain parts run from the residue outwards. [ ]: non-standard residue; d: D form. The star is where a group is joined. C18 diacid = O=C(O)CCCCCCCCCCCCCCCCC(=O)*; C16 diacid = O=C(O)CCCCCCCCCCCCCCC(=O)*; γGlu = O=C(O)[C@H](CCC(=O)[*:2])N[*:1]; NMeI = CC[C@H](C)[C@H](NC)C(=O)O; αMeL = CC(C)C[C@](C)(N)C(=O)O; AEEA = NCCOCCOCC(=O)O; Aib = CC(C)(N)C(=O)O

human corticotropin-releasing factor 2a (CRF2a receptor) (human), Q13324, sequence (Q13324 20-411): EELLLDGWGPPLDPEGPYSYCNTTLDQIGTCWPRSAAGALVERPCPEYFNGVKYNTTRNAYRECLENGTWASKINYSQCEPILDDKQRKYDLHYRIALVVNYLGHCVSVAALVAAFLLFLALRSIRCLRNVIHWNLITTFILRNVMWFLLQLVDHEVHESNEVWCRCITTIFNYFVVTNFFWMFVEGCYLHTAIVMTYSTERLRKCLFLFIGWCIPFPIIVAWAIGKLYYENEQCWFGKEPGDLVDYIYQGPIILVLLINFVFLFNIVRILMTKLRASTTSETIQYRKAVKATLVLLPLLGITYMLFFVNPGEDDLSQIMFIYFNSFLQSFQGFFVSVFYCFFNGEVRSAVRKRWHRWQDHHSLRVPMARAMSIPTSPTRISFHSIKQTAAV

B1: SEQ ID NO 110 (peptide)
peptide: Ac-IVLSLD[dV]PIK[αMeL]K([AEEA-AEEA-γGlu-C18 diacid])KILLEQEKQKKQREQAETN[Aib]QILAQV-NH2
SMILES: CC[C@H](C)[C@H](NC(C)=O)C(=O)N[C@H](C(=O)N[C@@H](CC(C)C)C(=O)N[C@@H](CO)C(=O)N[C@@H](CC(C)C)C(=O)N[C@@H](CC(=O)O)C(=O)N[C@@H](C(=O)N1CCC[C@H]1C(=O)N[C@H](C(=O)N[C@@H](CCCCN)C(=O)N[C@@](C)(CC(C)C)C(=O)N[C@@H](CCCCNC(=O)COCCOCCNC(=O)COCCOCCNC(=O)CC[C@H](NC(=O)CCCCCCCCCCCCCCCCC(=O)O)C(=O)O)C(=O)N[C@@H](CCCCN)C(=O)N[C@H](C(=O)N[C@@H](CC(C)C)C(=O)N[C@@H](CC(C)C)C(=O)N[C@@H](CCC(=O)O)C(=O)N[C@@H](CCC(N)=O)C(=O)N[C@@H](CCC(=O)O)C(=O)N[C@@H](CCCCN)C(=O)N[C@@H](CCC(N)=O)C(=O)N[C@@H](CCCCN)C(=O)N[C@@H](CCCCN)C(=O)N[C@@H](CCC(N)=O)C(=O)N[C@@H](CCCNC(=N)N)C(=O)N[C@@H](CCC(=O)O)C(=O)N[C@@H](CCC(N)=O)C(=O)N[C@@H](C)C(=O)N[C@@H](CCC(=O)O)C(=O)N[C@H](C(=O)N[C@@H](CC(N)=O)C(=O)NC(C)(C)C(=O)N[C@@H](CCC(N)=O)C(=O)N[C@H](C(=O)N[C@@H](CC(C)C)C(=O)N[C@@H](C)C(=O)N[C@@H](CCC(N)=O)C(=O)N[C@H](C(N)=O)C(C)C)[C@@H](C)CC)[C@@H](C)O)[C@@H](C)CC)[C@@H](C)CC)C(C)C)C(C)C
In turn, B1 had an EC50 [nM] (cAMP) in experiment [1] of 0.3 nM. The “Emax (% I)” value with CRF1R receptor was 9%.

B2: SEQ ID NO 53 (peptide)
peptide: Ac-IVLSLD[dV]PIK[αMeL]K([γGlu-C16 diacid])KILLEQEKQKKQREQAETDKQILAQV-NH2
SMILES: CC[C@H](C)[C@H](NC(C)=O)C(=O)N[C@H](C(=O)N[C@@H](CC(C)C)C(=O)N[C@@H](CO)C(=O)N[C@@H](CC(C)C)C(=O)N[C@@H](CC(=O)O)C(=O)N[C@@H](C(=O)N1CCC[C@H]1C(=O)N[C@H](C(=O)N[C@@H](CCCCN)C(=O)N[C@@](C)(CC(C)C)C(=O)N[C@@H](CCCCNC(=O)CC[C@H](NC(=O)CCCCCCCCCCCCCCC(=O)O)C(=O)O)C(=O)N[C@@H](CCCCN)C(=O)N[C@H](C(=O)N[C@@H](CC(C)C)C(=O)N[C@@H](CC(C)C)C(=O)N[C@@H](CCC(=O)O)C(=O)N[C@@H](CCC(N)=O)C(=O)N[C@@H](CCC(=O)O)C(=O)N[C@@H](CCCCN)C(=O)N[C@@H](CCC(N)=O)C(=O)N[C@@H](CCCCN)C(=O)N[C@@H](CCCCN)C(=O)N[C@@H](CCC(N)=O)C(=O)N[C@@H](CCCNC(=N)N)C(=O)N[C@@H](CCC(=O)O)C(=O)N[C@@H](CCC(N)=O)C(=O)N[C@@H](C)C(=O)N[C@@H](CCC(=O)O)C(=O)N[C@H](C(=O)N[C@@H](CC(=O)O)C(=O)N[C@@H](CCCCN)C(=O)N[C@@H](CCC(N)=O)C(=O)N[C@H](C(=O)N[C@@H](CC(C)C)C(=O)N[C@@H](C)C(=O)N[C@@H](CCC(N)=O)C(=O)N[C@H](C(N)=O)C(C)C)[C@@H](C)CC)[C@@H](C)O)[C@@H](C)CC)[C@@H](C)CC)C(C)C)C(C)C
As for B2, in experiment [1], the EC50 [nM] (cAMP) was 8.05 nM. Also, the “Emax (% I)” value with CRF1R receptor was determined as 5%.

B3: SEQ ID NO 125 (peptide)
peptide: Ac-IVLSLD[dV]PIKLK([γGlu-C18 diacid])KILLEQEKQKKQREQAETN[Aib]QILAQV-NH2
SMILES: CC[C@H](C)[C@H](NC(C)=O)C(=O)N[C@H](C(=O)N[C@@H](CC(C)C)C(=O)N[C@@H](CO)C(=O)N[C@@H](CC(C)C)C(=O)N[C@@H](CC(=O)O)C(=O)N[C@@H](C(=O)N1CCC[C@H]1C(=O)N[C@H](C(=O)N[C@@H](CCCCN)C(=O)N[C@@H](CC(C)C)C(=O)N[C@@H](CCCCNC(=O)CC[C@H](NC(=O)CCCCCCCCCCCCCCCCC(=O)O)C(=O)O)C(=O)N[C@@H](CCCCN)C(=O)N[C@H](C(=O)N[C@@H](CC(C)C)C(=O)N[C@@H](CC(C)C)C(=O)N[C@@H](CCC(=O)O)C(=O)N[C@@H](CCC(N)=O)C(=O)N[C@@H](CCC(=O)O)C(=O)N[C@@H](CCCCN)C(=O)N[C@@H](CCC(N)=O)C(=O)N[C@@H](CCCCN)C(=O)N[C@@H](CCCCN)C(=O)N[C@@H](CCC(N)=O)C(=O)N[C@@H](CCCNC(=N)N)C(=O)N[C@@H](CCC(=O)O)C(=O)N[C@@H](CCC(N)=O)C(=O)N[C@@H](C)C(=O)N[C@@H](CCC(=O)O)C(=O)N[C@H](C(=O)N[C@@H](CC(N)=O)C(=O)NC(C)(C)C(=O)N[C@@H](CCC(N)=O)C(=O)N[C@H](C(=O)N[C@@H](CC(C)C)C(=O)N[C@@H](C)C(=O)N[C@@H](CCC(N)=O)C(=O)N[C@H](C(N)=O)C(C)C)[C@@H](C)CC)[C@@H](C)O)[C@@H](C)CC)[C@@H](C)CC)C(C)C)C(C)C
With B3, the EC50 [nM] (cAMP) in experiment [1] came to 0.15 nM. For the same molecule, the “Emax (% I)” value with CRF1R receptor was 18%.

B4: SEQ ID NO 46 (peptide)
peptide: Ac-VLSLD[dV]PIK[αMeL]K([γGlu-C16 diacid])KILLEQEKQKKQREQAETN[Aib]QILAQV-NH2
SMILES: CC[C@H](C)[C@H](NC(=O)[C@H](CCC(N)=O)NC(=O)C(C)(C)NC(=O)[C@H](CC(N)=O)NC(=O)[C@@H](NC(=O)[C@H](CCC(=O)O)NC(=O)[C@H](C)NC(=O)[C@H](CCC(N)=O)NC(=O)[C@H](CCC(=O)O)NC(=O)[C@H](CCCNC(=N)N)NC(=O)[C@H](CCC(N)=O)NC(=O)[C@H](CCCCN)NC(=O)[C@H](CCCCN)NC(=O)[C@H](CCC(N)=O)NC(=O)[C@H](CCCCN)NC(=O)[C@H](CCC(=O)O)NC(=O)[C@H](CCC(N)=O)NC(=O)[C@H](CCC(=O)O)NC(=O)[C@H](CC(C)C)NC(=O)[C@H](CC(C)C)NC(=O)[C@@H](NC(=O)[C@H](CCCCN)NC(=O)[C@H](CCCCNC(=O)CC[C@H](NC(=O)CCCCCCCCCCCCCCC(=O)O)C(=O)O)NC(=O)[C@](C)(CC(C)C)NC(=O)[C@H](CCCCN)NC(=O)[C@@H](NC(=O)[C@@H]1CCCN1C(=O)[C@H](NC(=O)[C@H](CC(=O)O)NC(=O)[C@H](CC(C)C)NC(=O)[C@H](CO)NC(=O)[C@H](CC(C)C)NC(=O)[C@@H](NC(C)=O)C(C)C)C(C)C)[C@@H](C)CC)[C@@H](C)CC)[C@@H](C)O)C(=O)N[C@@H](CC(C)C)C(=O)N[C@@H](C)C(=O)N[C@@H](CCC(N)=O)C(=O)N[C@H](C(N)=O)C(C)C
In turn, B4 came in with an EC50 [nM] (cAMP) in experiment [1] of 0.7 nM. In the experiment with CRF1R receptor, the “Emax (% I)” value amounted to 6%.

B5: SEQ ID NO 67 (peptide)
peptide: [NMeI]VLSLD[dV]PIK[αMeL]K([γGlu-C16 diacid])KILLEQEKQKKQREQAETNVQILAQV-NH2
modifications: N-terminus assumed
SMILES: CC[C@H](C)[C@H](NC)C(=O)N[C@H](C(=O)N[C@@H](CC(C)C)C(=O)N[C@@H](CO)C(=O)N[C@@H](CC(C)C)C(=O)N[C@@H](CC(=O)O)C(=O)N[C@@H](C(=O)N1CCC[C@H]1C(=O)N[C@H](C(=O)N[C@@H](CCCCN)C(=O)N[C@@](C)(CC(C)C)C(=O)N[C@@H](CCCCNC(=O)CC[C@H](NC(=O)CCCCCCCCCCCCCCC(=O)O)C(=O)O)C(=O)N[C@@H](CCCCN)C(=O)N[C@H](C(=O)N[C@@H](CC(C)C)C(=O)N[C@@H](CC(C)C)C(=O)N[C@@H](CCC(=O)O)C(=O)N[C@@H](CCC(N)=O)C(=O)N[C@@H](CCC(=O)O)C(=O)N[C@@H](CCCCN)C(=O)N[C@@H](CCC(N)=O)C(=O)N[C@@H](CCCCN)C(=O)N[C@@H](CCCCN)C(=O)N[C@@H](CCC(N)=O)C(=O)N[C@@H](CCCNC(=N)N)C(=O)N[C@@H](CCC(=O)O)C(=O)N[C@@H](CCC(N)=O)C(=O)N[C@@H](C)C(=O)N[C@@H](CCC(=O)O)C(=O)N[C@H](C(=O)N[C@@H](CC(N)=O)C(=O)N[C@H](C(=O)N[C@@H](CCC(N)=O)C(=O)N[C@H](C(=O)N[C@@H](CC(C)C)C(=O)N[C@@H](C)C(=O)N[C@@H](CCC(N)=O)C(=O)N[C@H](C(N)=O)C(C)C)[C@@H](C)CC)C(C)C)[C@@H](C)O)[C@@H](C)CC)[C@@H](C)CC)C(C)C)C(C)C
In experiment [1], B5 registered an EC50 [nM] (cAMP) of 0.34 nM. Also, the “Emax (% I)” value with CRF1R receptor was 8%.

B6: SEQ ID NO 65 (peptide)
peptide: [NMeI]VLSLD[dV]PIK[αMeL]K([γGlu-C16 diacid])KILLEQEKQKKQREQAETN[Aib]QILAQV-NH2
modifications: N-terminus assumed
SMILES: CC[C@H](C)[C@H](NC)C(=O)N[C@H](C(=O)N[C@@H](CC(C)C)C(=O)N[C@@H](CO)C(=O)N[C@@H](CC(C)C)C(=O)N[C@@H](CC(=O)O)C(=O)N[C@@H](C(=O)N1CCC[C@H]1C(=O)N[C@H](C(=O)N[C@@H](CCCCN)C(=O)N[C@@](C)(CC(C)C)C(=O)N[C@@H](CCCCNC(=O)CC[C@H](NC(=O)CCCCCCCCCCCCCCC(=O)O)C(=O)O)C(=O)N[C@@H](CCCCN)C(=O)N[C@H](C(=O)N[C@@H](CC(C)C)C(=O)N[C@@H](CC(C)C)C(=O)N[C@@H](CCC(=O)O)C(=O)N[C@@H](CCC(N)=O)C(=O)N[C@@H](CCC(=O)O)C(=O)N[C@@H](CCCCN)C(=O)N[C@@H](CCC(N)=O)C(=O)N[C@@H](CCCCN)C(=O)N[C@@H](CCCCN)C(=O)N[C@@H](CCC(N)=O)C(=O)N[C@@H](CCCNC(=N)N)C(=O)N[C@@H](CCC(=O)O)C(=O)N[C@@H](CCC(N)=O)C(=O)N[C@@H](C)C(=O)N[C@@H](CCC(=O)O)C(=O)N[C@H](C(=O)N[C@@H](CC(N)=O)C(=O)NC(C)(C)C(=O)N[C@@H](CCC(N)=O)C(=O)N[C@H](C(=O)N[C@@H](CC(C)C)C(=O)N[C@@H](C)C(=O)N[C@@H](CCC(N)=O)C(=O)N[C@H](C(N)=O)C(C)C)[C@@H](C)CC)[C@@H](C)O)[C@@H](C)CC)[C@@H](C)CC)C(C)C)C(C)C
On to B6, for which the EC50 [nM] (cAMP) in experiment [1] came out at 0.1 nM. Also, in the experiment with CRF1R receptor, the “Emax (% I)” value was 10%.
